Measured values taken from the RNAGym collection of RNA variant scans (doi:10.7554/elife.90254).

B1: OR4K15 (parent)
chain: GUUAACGGUCAUAGGCCAUGGAAACUAGGAGCACCAUUUCGCUGCCAGUGAAGAAAUGAACAAAGAAAAUCUGGGCCAGGCAGGCAUCAAAAGAAAUAGUCUUGCGCUCAACCAGAAAGUCUGUAAUCAUUUUAAGGGUA

Variants of: B1
Assay: self-cleavage, relative activity (ratio to wild type); higher = more cleavage; in vitro, sequencing; the parent is a self-cleaving ribozyme

Variant | self-cleavage
A64U U122A | 1.78
A67G U120A | 1.38
A68U G137A | 1.39
A64G A78G | 0.28
A67C A89U | 2.57
A64G U132A | 1.85
A64G U132C | 1.53
A66U A69G | 1.06
A66G U130G | 0.2
A66G U130C | 1.68
A66G U108A | 0.02
A66G U108C | 0.02
A68U A96G | 1.98
G65A A66G | 1.13
A67G A86U | 2.13
A64G A66G | 1.39
A64G A66U | 0.44
A67G G106A | 0.02
A64G U97C | 1.63
A66U A91G | 0.65
A66G U103C | 1.06
A66G U103A | 0.32
A64G A116G | 0.61
A67G A117G | 1.66

Variant | self-cleavage
A67G A117C | 0.17
A67G A117U | 0.32
A64U U87G | 0.62
A68U U100C | 2.4
A67U A114G | 0.66
A68G A118C | 0.67
A68G A118G | 0.77
A68G A118U | 0.83
A63U U127C | 1.25
A68C U130A | 0.98
A67G A118U | 0.81
A67G A118G | 0.95
A67G U122C | 0.99
A67G U122A | 0.99
A68U U102C | 2.04
A68U U102A | 1.15
G65U U87C | 2.23
A67G G99U | 0.62
A68G A140G | 1.91
A68U G119A | 1.58
A66G U102C | 1.84
A67G A94U | 1.92
A67G A94G | 1.74
A68U A126G | 0.6

Variant | self-cleavage
A68C A92G | 1.88
A64G A98C | 1.73
A64U A82U | 0.19
A68G A78U | 0.13
A68G A78G | 0.3
A67G A78G | 0.21
A68U A111G | 0.02
A66U G75C | 0.18
A67G U131C | 1.2
A66U A129G | 0.39
A66U A129U | 0.61
A68G U139C | 0.95
A64G G74A | 0.36
A64G G74U | 0.24
A64G U130C | 0.45
A64G A125U | 2.92
A64G A125G | 0.28
A66G A129G | 0.85
A67G A135G | 2.06
A64U A129G | 1.34
A68G C105U | 0.14
A66U U102C | 1.8
A66G A114C | 0.06
A66G A114G | 0.48

Variant | self-cleavage
A66C U131A | 1.1
A66U A89U | 0.62
A66G U139A | 1.72
G65A A78G | 0.2
A66G G73U | 0.3
A68G C77A | 0.54
A68G G137C | 1.12
A68G G137A | 1.06
A67U U87C | 1.29
A68G G138A | 1.67
A66C C113A | 0.02
A67G A140U | 1.93
A66G A126U | 1.54
A68U U87G | 0.38
A68U U87C | 1.78
A64U A116G | 0.21
A66G G75A | 0.08
A66G G83A | 1.56
A68U A116G | 1.07
A64G C77U | 1.43
A67U A78C | 0.23
A64G A91G | 1.33
A67G A98G | 0.36
A68G U87A | 0.96

Variant | self-cleavage
A67G A68C | 0.53
A67G A68G | 1.5
A64U U72C | 0.34
A64G U102C | 2.06
A68G C112U | 0.02
A64C A116G | 0.83
A66U A114U | 0.04
A68C U132C | 1.61
A68U U108A | 0.05
A68U A117G | 0.37
A68G A129C | 0.82
A68G A129U | 1.42
A68G A129G | 1.05
A67G G75C | 0.03
A64G A118C | 0.2
A64G A135U | 1.28
A66G G136A | 1.72
A66G A96G | 1.87
A64G G123A | 1.66
A64U U102C | 2.23
A64U U102A | 1.07
A68G A86C | 0.72
A67G A129G | 0.85
A67G A129C | 1.2

Variant | self-cleavage
A67G A129U | 1.03
A64G A94G | 1.74
A64G A94U | 1.61
A66G G104A | 0.03
A66G G104U | 0.02
A64G A129U | 0.99
A64G A129G | 1.14
A64G A129C | 1.8
A67U A135G | 2.46
A64G G137A | 0.96
A67G U103G | 0.05
A67G U103A | 0.89
A66U G106A | 0.02
A68G U70A | 1.12
A66G U131C | 1.04
A68G A96U | 2.13
A68G A96C | 1.42
A68U A86G | 1.44
A67G C107A | 0.04
A68G C88U | 1.57
A67G U97C | 1.74
A66G A116G | 0.6
A68G A134G | 1.5
A67G A92C | 1.62

Variant | self-cleavage
A67G A92G | 1.31
A68G A135U | 0.68
A67G A89G | 0.82
A67G A110G | 0.11
A64G A89U | 2.18
A66U A110G | 0.14
A64U U103A | 1.08
A64U U103C | 0.87
A66U U122C | 1.09
A64G U131A | 0.6
A64G G75U | 0.12
A66G U127C | 1.11
A68U U97G | 1.94
A64G U72C | 0.27
A64G U72A | 0.35
A68G C128U | 1.44
A68G G136C | 1.93
A68G G136A | 1.44
A66U U127C | 0.58
A68C A110G | 0.16
A64U A126G | 1.12
G65A A91G | 0.96
A64G U124C | 1.57
A67U A90G | 1.72

Variant | self-cleavage
A64U U108C | 0.02
A68C U127G | 2.01
A66G A89G | 1.62
A64U G123A | 2.31
A66U A90G | 1.22
A67U A82G | 0.9
A64G A114U | 0.1
A64G A114G | 0.31
A68U A78G | 0.27
A64G G106A | 0.04
A64G A126C | 1.16
A64U U127C | 1.66
A67U U122A | 1.36
A64U | 1.23
A64C | 1.69
A64G | 1.2
A67G | 1.1
A67C | 1.83
A67U | 1.54
A64U C77U | 1.56
A68G G75A | 0.1
A67G G137A | 1.67
A67G U132C | 1.66
A67G C88U | 1.97

Variant | self-cleavage
A68G A92C | 1.7
A68G A92G | 1.55
A67G U70C | 1.05
A67G A126U | 0.87
A66G C105G | 0.03
A68G A111U | 0.21
A67G C128U | 0.62
A67G A82U | 0.07
A67U A118G | 1.4
A64C G75C | 0.21
A66G A118C | 1.11
A66G A118G | 2.17
A64G U127C | 0.86
A68G U132C | 1.38
A68G U132A | 1.27
A66G A92U | 1.98
A66G G80C | 0.12
A67G A125G | 0.57
A68G U102C | 1.9
A66G A110C | 0.37
A66G A110G | 0.15
A64G U103C | 1.2
A68G G84A | 2.58
A64C A94G | 2.25

Variant | self-cleavage
A67G A111G | 0.02
A64C A95G | 2.58
A64G C101U | 0.42
A66U A96G | 1.17
A67G G93U | 1.17
A68U A140U | 1.65
A66U U130C | 1.34
A66G A90G | 1.17
A66U U87C | 0.42
A63U U130C | 0.28
A68G U122C | 1.18
A64U A90G | 0.32
A68U U127A | 2.58
A67G A134U | 1.12
A64U A94U | 1.63
A68G U72C | 0.29
A68G U72A | 0.26
A67U U130A | 1.56
A66U C81U | 0.05
A67G U130C | 1.25
A67U G75A | 0.06
A68G A117G | 2
A68G A117U | 0.82
A68U U103A | 0.3

Variant | self-cleavage
A67U A69U | 1.69
A64C U102A | 0.71
A66U U139A | 2.31
A64U A117G | 1.18
A68G A69G | 0.87
A68G A69U | 1.38
A68G A69C | 0.94
A66U A125G | 0.25
A64G A96C | 0.76
A68G A89G | 2.04
A66U A86C | 1.36
A67U U100G | 1.34
A64G A134G | 1.41
A63U U120C | 1.25
A68G A98U | 0.78
A68G A98G | 0.16
A67C A126G | 2.11
A66U C85U | 1.09
A68G A116G | 0.8
A66C A67G | 0.46
A66G A135G | 0.47
A68U A82U | 0.25
A68U A82G | 0.75
A64G A68U | 1.42

Variant | self-cleavage
A68G A110G | 0.25
A68G A110U | 1.49
A64U A110G | 0.11
A64C C76U | 0.26
A66G A117U | 0.6
A66G A117G | 1.88
A68G A91C | 1.44
A68G A91U | 1.44
A66U A78U | 0.32
A67G U100C | 2.32
A67G C113U | 0.17
A64C C105U | 0.17
A67U A116C | 0.1
A68G U97C | 1.3
A64G A110U | 1.1
A66G U72A | 0.32
A63U U122C | 1.57
A64U G115A | 0.02
A66U A95G | 1.87
A67G C77A | 0.71
A66G A69G | 1.02
A66G A69C | 1.67
A66G U120G | 2.47
A66G U120A | 1.73

Variant | self-cleavage
A68U A125C | 1.36
A66G A78U | 0.5
A68G U103C | 0.96
A68G U103A | 0.5
A67G A91U | 0.99
A67G U102C | 1.56
A67G U102A | 1.3
A63U U132C | 1.98
A67G A95G | 2.37
A66U U124C | 1.25
A64C G137A | 1.49
A64G A86U | 2.21
A66G A98U | 1.08
A64G A140U | 1.37
A66G U124C | 0.76
A66G U124A | 1.19
A64U A140G | 1.39
A67G G80A | 0.04
A68G G83A | 1.73
A66G U122A | 1.63
A66G U122G | 2.19
A66G U122C | 1.67
A66U G80A | 0.05
A67C U131C | 1.86

Variant | self-cleavage
G65U A111G | 0.06
A64G U70C | 0.57
A67G A69G | 0.77
A68G A94G | 1.34
A68G A94U | 2.3
A67G U124G | 1.24
A67G U124A | 0.87
A68G G106U | 0.02
A68U U122C | 1.51
A66G A67C | 1.66
A66G A67U | 1.61
A68U A92G | 0.44
A66G A82G | 0.26
A67C U139C | 2.18
A64U A92C | 1.53
A64G U108A | 0.01
A68U A89G | 1.53
A64U A89U | 0.92
A66G C77A | 0.91
A67G U87A | 1.28
A67G C101A | 0.19
A64C A140U | 1.86
